Values belong to the binder of their own block, whether it stands above or below them.
What was measured:
[1] = molecular target: T1, His-tagged PTB domain of RABGAP1; assay: ITC; APP peptides titrated into about 100 μM His-PTB of RABGAP1 in 2.4 μl injections at 20 °C; 100 mM Tris pH 7.4, 300 mM NaCl, 1 mM TCEP; Nano ITC; three independent runs for the WT peptide; details: both partners purified
T1 chain: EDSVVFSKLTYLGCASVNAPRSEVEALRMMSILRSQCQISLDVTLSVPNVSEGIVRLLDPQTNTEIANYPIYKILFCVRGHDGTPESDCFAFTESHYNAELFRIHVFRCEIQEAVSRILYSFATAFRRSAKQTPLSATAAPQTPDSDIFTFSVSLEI

[2] = molecular target: T2, GST fused to the APP cytosolic tail mutant FFE689-91AAA (UniProt P05067-4 649-695, FFE689-91AAA); assay: pull-down; GST-APP tail WT, tail mutants or GST only on glutathione-Sepharose beads, incubated overnight at 4 °C with pre-cleared HEK293T lysate; eluted with 1.5 M NaCl; eluates immunoblotted for the hits; N = 3; details: one partner purified
T2 construct: amyloid precursor protein (APP), cytosolic tail, residues 649-695; numbers count on: APP isoform 695; also called FFE689-9AAA; source: T7 express E. coli; clarified lysate loaded on glutathione-Sepharose 4B beads and washed
T2 chain (looked up): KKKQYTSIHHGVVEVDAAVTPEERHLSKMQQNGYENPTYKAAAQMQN

- Kd [1]: ~61 µM
- stoichiometry N [1]: 1
B1: WT APP tail peptide starting from the MQQ sequence at position 677 (peptide, UniProt P05067-4 677-695, looked up)
peptide: MQQNGYENPTYKFFEQMQN
notes: amyloid precursor protein (APP), cytosolic tail from M677 (MQQ...); numbers count on: APP isoform 695; The peptide probably runs to the C-terminus of APP695 (residue 695); also called APPwt; WT APP peptide

- fold change of binding against the WT tail [2]: ~3 fold
B2: RABGAP1 (natural protein)
chain: not shown
notes: also called GAPCenA; TBC1D11; source: endogenous, HEK293T lysate

From PMC12489035, “RABGAP1 is a sensor that facilitates the sorting and processing of amyloid precursor protein” (The EMBO Journal, 2025)
